± gives the uncertainty stated by the source.
B1: KAT8 regulatory NSL complex subunit 2, residues 28 to 91; numbered along this chain, Q9H9L4 (parent)
chain: CAFTHRPCSHPRLEGQEFCIKHILEDKNAPFKQCSYISTKNGKRCPNAAPKPEKKDGVSFCAEH

Variants of: B1
Assay: abundance fitness (aPCA) (normalised: wild type 0, dead -1); higher = more abundant; growth selection in yeast, the domain comes from the species named
Settings: Homo sapiens

Row | Variant | abundance fitness
1 | CAFTHRPCSHPRLEGQEFCIKHILEDKNAPFKQCSYISTKNGKRWPNAAPKPEKKDGVSFCAEH [C45W] | -0.79 ± 0.056
2 | CAFTHRPCSHPRLEGQEFCIKHILEDKNAPFKQCSYISTKNGKRYPNAAPKPEKKDGVSFCAEH [C45Y] | -0.671 ± 0.1
3 | CAFTHRPCSHPRLEGQEFCIKHILEDKNAPFKQCSYISTKNGKRCANAAPKPEKKDGVSFCAEH [P46A] | -0.119 ± 0.072
4 | CAFTHRPCSHPRLEGQEFCIKHILEDKNAPFKQCSYISTKNGKRCCNAAPKPEKKDGVSFCAEH [P46C] | -0.065 ± 0.056
5 | CAFTHRPCSHPRLEGQEFCIKHILEDKNAPFKQCSYISTKNGKRCDNAAPKPEKKDGVSFCAEH [P46D] | -0.155 ± 0.075
6 | CAFTHRPCSHPRLEGQEFCIKHILEDKNAPFKQCSYISTKNGKRCENAAPKPEKKDGVSFCAEH [P46E] | -0.031 ± 0.094
7 | CAFTHRPCSHPRLEGQEFCIKHILEDKNAPFKQCSYISTKNGKRCFNAAPKPEKKDGVSFCAEH [P46F] | -0.148 ± 0.072
8 | CAFTHRPCSHPRLEGQEFCIKHILEDKNAPFKQCSYISTKNGKRCGNAAPKPEKKDGVSFCAEH [P46G] | -0.022 ± 0.037
9 | CAFTHRPCSHPRLEGQEFCIKHILEDKNAPFKQCSYISTKNGKRCHNAAPKPEKKDGVSFCAEH [P46H] | -0.165 ± 0.083
10 | CAFTHRPCSHPRLEGQEFCIKHILEDKNAPFKQCSYISTKNGKRCINAAPKPEKKDGVSFCAEH [P46I] | -0.073 ± 0.061
11 | CAFTHRPCSHPRLEGQEFCIKHILEDKNAPFKQCSYISTKNGKRCKNAAPKPEKKDGVSFCAEH [P46K] | 0.025 ± 0.1
12 | CAFTHRPCSHPRLEGQEFCIKHILEDKNAPFKQCSYISTKNGKRCLNAAPKPEKKDGVSFCAEH [P46L] | -0.079 ± 0.042
13 | CAFTHRPCSHPRLEGQEFCIKHILEDKNAPFKQCSYISTKNGKRCMNAAPKPEKKDGVSFCAEH [P46M] | -0.1 ± 0.074
14 | CAFTHRPCSHPRLEGQEFCIKHILEDKNAPFKQCSYISTKNGKRCNNAAPKPEKKDGVSFCAEH [P46N] | -0.014 ± 0.062
15 | CAFTHRPCSHPRLEGQEFCIKHILEDKNAPFKQCSYISTKNGKRCQNAAPKPEKKDGVSFCAEH [P46Q] | -0.1 ± 0.1
16 | CAFTHRPCSHPRLEGQEFCIKHILEDKNAPFKQCSYISTKNGKRCRNAAPKPEKKDGVSFCAEH [P46R] | -0.042 ± 0.043
17 | CAFTHRPCSHPRLEGQEFCIKHILEDKNAPFKQCSYISTKNGKRCSNAAPKPEKKDGVSFCAEH [P46S] | -0.049 ± 0.04
18 | CAFTHRPCSHPRLEGQEFCIKHILEDKNAPFKQCSYISTKNGKRCTNAAPKPEKKDGVSFCAEH [P46T] | -0.049 ± 0.056
19 | CAFTHRPCSHPRLEGQEFCIKHILEDKNAPFKQCSYISTKNGKRCVNAAPKPEKKDGVSFCAEH [P46V] | -0.069 ± 0.068
20 | CAFTHRPCSHPRLEGQEFCIKHILEDKNAPFKQCSYISTKNGKRCWNAAPKPEKKDGVSFCAEH [P46W] | -0.024 ± 0.062
21 | CAFTHRPCSHPRLEGQEFCIKHILEDKNAPFKQCSYISTKNGKRCYNAAPKPEKKDGVSFCAEH [P46Y] | -0.105 ± 0.065

Row | Variant | abundance fitness
22 | CAFTHRPCSHPRLEGQEFCIKHILEDKNAPFKQCSYISTKNGKRCPAAAPKPEKKDGVSFCAEH [N47A] | -0.002 ± 0.059
23 | CAFTHRPCSHPRLEGQEFCIKHILEDKNAPFKQCSYISTKNGKRCPCAAPKPEKKDGVSFCAEH [N47C] | -0.029 ± 0.089
24 | CAFTHRPCSHPRLEGQEFCIKHILEDKNAPFKQCSYISTKNGKRCPDAAPKPEKKDGVSFCAEH [N47D] | 0.017 ± 0.066
25 | CAFTHRPCSHPRLEGQEFCIKHILEDKNAPFKQCSYISTKNGKRCPEAAPKPEKKDGVSFCAEH [N47E] | -0.049 ± 0.06
26 | CAFTHRPCSHPRLEGQEFCIKHILEDKNAPFKQCSYISTKNGKRCPFAAPKPEKKDGVSFCAEH [N47F] | 0.006 ± 0.086
27 | CAFTHRPCSHPRLEGQEFCIKHILEDKNAPFKQCSYISTKNGKRCPGAAPKPEKKDGVSFCAEH [N47G] | -0.076 ± 0.073
28 | CAFTHRPCSHPRLEGQEFCIKHILEDKNAPFKQCSYISTKNGKRCPHAAPKPEKKDGVSFCAEH [N47H] | -0.118 ± 0.079
29 | CAFTHRPCSHPRLEGQEFCIKHILEDKNAPFKQCSYISTKNGKRCPIAAPKPEKKDGVSFCAEH [N47I] | -0.107 ± 0.078
30 | CAFTHRPCSHPRLEGQEFCIKHILEDKNAPFKQCSYISTKNGKRCPKAAPKPEKKDGVSFCAEH [N47K] | -0.076 ± 0.067
31 | CAFTHRPCSHPRLEGQEFCIKHILEDKNAPFKQCSYISTKNGKRCPLAAPKPEKKDGVSFCAEH [N47L] | -0.053 ± 0.047
32 | CAFTHRPCSHPRLEGQEFCIKHILEDKNAPFKQCSYISTKNGKRCPMAAPKPEKKDGVSFCAEH [N47M] | -0.074 ± 0.06
33 | CAFTHRPCSHPRLEGQEFCIKHILEDKNAPFKQCSYISTKNGKRCPPAAPKPEKKDGVSFCAEH [N47P] | -0.511 ± 0.073
34 | CAFTHRPCSHPRLEGQEFCIKHILEDKNAPFKQCSYISTKNGKRCPQAAPKPEKKDGVSFCAEH [N47Q] | 0.061 ± 0.079
35 | CAFTHRPCSHPRLEGQEFCIKHILEDKNAPFKQCSYISTKNGKRCPRAAPKPEKKDGVSFCAEH [N47R] | -0.062 ± 0.065
36 | CAFTHRPCSHPRLEGQEFCIKHILEDKNAPFKQCSYISTKNGKRCPSAAPKPEKKDGVSFCAEH [N47S] | -0.035 ± 0.064
37 | CAFTHRPCSHPRLEGQEFCIKHILEDKNAPFKQCSYISTKNGKRCPTAAPKPEKKDGVSFCAEH [N47T] | -0.057 ± 0.083
38 | CAFTHRPCSHPRLEGQEFCIKHILEDKNAPFKQCSYISTKNGKRCPVAAPKPEKKDGVSFCAEH [N47V] | -0.063 ± 0.047
39 | CAFTHRPCSHPRLEGQEFCIKHILEDKNAPFKQCSYISTKNGKRCPWAAPKPEKKDGVSFCAEH [N47W] | -0.079 ± 0.061
40 | CAFTHRPCSHPRLEGQEFCIKHILEDKNAPFKQCSYISTKNGKRCPYAAPKPEKKDGVSFCAEH [N47Y] | -0.132 ± 0.083
41 | CAFTHRPCSHPRLEGQEFCIKHILEDKNAPFKQCSYISTKNGKRCPNCAPKPEKKDGVSFCAEH [A48C] | -0.078 ± 0.092
42 | CAFTHRPCSHPRLEGQEFCIKHILEDKNAPFKQCSYISTKNGKRCPNEAPKPEKKDGVSFCAEH [A48E] | -0.28 ± 0.074

Reference: the Human Domainome abundance scans (Beltran et al. 2025)
